Drawing on the RNAGym collection of RNA variant scans (doi:10.7554/elife.90254), this text covers self-cleavage for 39 variants.

B1: LINE1-full (parent)
chain: UACGUAGGUGGUUUUCCCCUGAUAGUGCUAAGGGGGCCUGGAAGUUUGGACUGGGCAGAGCUCAACACAGCGUGGCAAAGUGGCUGUGGCUAGACUGCCUCUCUGGAUUCCUCGUCACUCAGCAGGGCAUCUCUGAGAGAAAUGCC

This series covers variants of B1. Put plainly: self-cleavage, relative activity (ratio to wild type); higher = more cleavage; in vitro, sequencing; the parent is a self-cleaving ribozyme.
Regarding UACGUAGGUGGUUUUCCCCUGAUAGAGCUAAGGGGGCCUGGAAGUUUGGACUGGGCAGAGCUCAACACAGCGUGGCAAAGUGGCUGUGGCUAGACAGCCUCUCUGGAUUCCUCGUCACUCAGCAGGGCAUCUCUGAGAGAAAUGCC [U26A U96A], the self-cleavage came to 0.09.
UACGUAGGUGGUUUUCCCCUGAUAGAGCUAAGGGGGCCUGGAAGUUUGGACUGGGCAGAGCUCAACACAGCGUGGCAAAGUGGCUGUGGCUAGACCGCCUCUCUGGAUUCCUCGUCACUCAGCAGGGCAUCUCUGAGAGAAAUGCC [U26A U96C]: the self-cleavage came out at 0.16.
UACGUAGGUGGUUUUCCCCUGAUAGCGCUAAGGGGGCCUGGAAGUUUGGACUGGGCAGAGCUCAACACAGCGUGGCAAAGUGGCUGUGGCUAGACUGCCUCUCUGGGUUCCUCGUCACUCAGCAGGGCAUCUCUGAGAGAAAUGCC [U26C A107G]: the self-cleavage was 1.33.
For UACGUAGGUGGUUUUCCCCUGAUAGAGCUAAGGGGGCCUGGAAGUUUGGACUGGGCAGAGCCCAACACAGCGUGGCAAAGUGGCUGUGGCUAGACUGCCUCUCUGGAUUCCUCGUCACUCAGCAGGGCAUCUCUGAGAGAAAUGCC [U26A U62C], the self-cleavage was 0.04.
In the case of UACGUAGGUGGUUUUCCCCUGAUAGCGCUAAGGGGGCCUGGAUGUUUGGACUGGGCAGAGCUCAACACAGCGUGGCAAAGUGGCUGUGGCUAGACUGCCUCUCUGGAUUCCUCGUCACUCAGCAGGGCAUCUCUGAGAGAAAUGCC [U26C A43U] it was 1.21.
For UACGUAGGUGGUUUUCCCCUGAUAGCGCUAAGGGGGCCUGGAAGUUUGGACUGGGCAGCGCUCAACACAGCGUGGCAAAGUGGCUGUGGCUAGACUGCCUCUCUGGAUUCCUCGUCACUCAGCAGGGCAUCUCUGAGAGAAAUGCC [U26C A59C], the self-cleavage was 1.37.
On to UACGUAGGUGGUUUUCCCCUGAUAGCGCUAAGGGGGCCUGGAAGUUUGGACUGGGCAGGGCUCAACACAGCGUGGCAAAGUGGCUGUGGCUAGACUGCCUCUCUGGAUUCCUCGUCACUCAGCAGGGCAUCUCUGAGAGAAAUGCC [U26C A59G], for which the self-cleavage was determined as 0.08.
Take UACGUAGGUGGUUUUCCCCUGAUAGAGCUAAGGGGGCCUGGAAGUUUGGACUGGGCAGAGCUCAACACAGCGUGGCAAAGUGGCUGUGGCUAGACUGCCUCUCCGGAUUCCUCGUCACUCAGCAGGGCAUCUCUGAGAGAAAUGCC [U26A U104C]: the self-cleavage was determined as 1.28.
With UACGUAGGUGGUUUUCCCCUGAUAGAGCUAAGGGGGCCUGGAAGUUUGGACUGGGCAGAGCUCAACACAGCGUGGCAAAGUGGCUGUGGCUAGACUGCCUCUCUGGAUUCCACGUCACUCAGCAGGGCAUCUCUGAGAGAAAUGCC [U26A U112A], the self-cleavage was found to be 0.9.
In the case of UACGUAGGUGGUUUUCCCCUGAUAGAGCUAAGGGGGCCUGGAAGUUUGGACUGGGCAGAGCUCAACACAGCGUGGCAAAGUGGCUGUGGCUAGACUGCCUCUCUGGAUUCCCCGUCACUCAGCAGGGCAUCUCUGAGAGAAAUGCC [U26A U112C], the self-cleavage stood at 1.18.
Turning to UACGUAGGUGGUUUUCCCCUGAUAGAGCUAAGGGGGCCUGGAAGUUUGGACUGGGCAGAGCUCAACACAGCGUGGCAAAGUGGCUGUGGCUAGACUGCCUCUCUGGACUCCUCGUCACUCAGCAGGGCAUCUCUGAGAGAAAUGCC [U26A U108C], the self-cleavage came to 1.13.
For the variant UACGUAGGUGGUUUUCCCCUGAUAGAGCUAAGGGGGCCUGGAAGUUUGGACUGGGCAGAGCUCAACACAGCGUGGCAAAGUGGCUGUGGCUAGACUGCCUCUCUGGAUUCCUCGACACUCAGCAGGGCAUCUCUGAGAGAAAUGCC [U26A U115A], the self-cleavage was 1.07.
Regarding UACGUAGGUGGUUUUCCCCUGAUAGCGCUAAGGGGGCCUGGAAGUUUGGACUGGGCAGAGCUCAACACAGCGUGGCAAGGUGGCUGUGGCUAGACUGCCUCUCUGGAUUCCUCGUCACUCAGCAGGGCAUCUCUGAGAGAAAUGCC [U26C A79G], the self-cleavage was found to be 1.01.
UACGUAGGUGGUUUUCCCCUGAUAGCGCUAAGGGGGCCUGGAAGUUUGGACUGGGCAGAGCUCAACACAGCGUGGCAAUGUGGCUGUGGCUAGACUGCCUCUCUGGAUUCCUCGUCACUCAGCAGGGCAUCUCUGAGAGAAAUGCC [U26C A79U]: the self-cleavage worked out at 0.68.
On to UACGUAGGUGGUUUUCCCCUGAUAGAGCUAAGGGGGCCUGGAAGUUUGGACUGGGCAGAGCUCAACACAGCGUGGCAAAGUGGCUGUGGCUAGACUGCCUCUCUGGAUUCCUCGUCACUCAGCAGGGCAUCCCUGAGAGAAAUGCC [U26A U132C], for which the self-cleavage was found to be 1.15.
In the case of UACGUAGGUGGUUUUCCCCUGAUAGCGCUAAGGGGGCCUGGAAGUUUGGACUGGGCAGAGCUCAACACGGCGUGGCAAAGUGGCUGUGGCUAGACUGCCUCUCUGGAUUCCUCGUCACUCAGCAGGGCAUCUCUGAGAGAAAUGCC [U26C A69G], the self-cleavage is 0.46.
In the case of UACGUAGGUGGUUUUCCCCUGAUAGCGCUAAGGGGGCCUGGAAGUUUGGACUGGGCAGAGCUCAACACUGCGUGGCAAAGUGGCUGUGGCUAGACUGCCUCUCUGGAUUCCUCGUCACUCAGCAGGGCAUCUCUGAGAGAAAUGCC [U26C A69U], the self-cleavage was determined as 0.11.
As to UACGUAGGUGGUUUUCCCCUGAUAGCGCUAAGGGGGCCUGGAAGUUUGGACUGGGCAGAGCUCAACACAGCGUGGCAAAGUGGCUGUGGCUGGACUGCCUCUCUGGAUUCCUCGUCACUCAGCAGGGCAUCUCUGAGAGAAAUGCC [U26C A92G], the self-cleavage worked out at 0.04.
Then UACGUAGGUGGUUUUCCCCUGAUAGCGCUAAGGGGGCCUGGAAGUUUGGACUGGGCAGAGCUCAUCACAGCGUGGCAAAGUGGCUGUGGCUAGACUGCCUCUCUGGAUUCCUCGUCACUCAGCAGGGCAUCUCUGAGAGAAAUGCC [U26C A65U], with 0.14; and UACGUAGGUGGUUUUCCCCUGAUAGCGCUAAGGGGGCCUGGAAGUUUGGACUGGGCAGAGCUCAGCACAGCGUGGCAAAGUGGCUGUGGCUAGACUGCCUCUCUGGAUUCCUCGUCACUCAGCAGGGCAUCUCUGAGAGAAAUGCC [U26C A65G], with 0.13; and UACGUAGGUGGUUUUCCCCUGAUAGAGCUAAGGGGGCCUGGAAGUUUGGACUGGGCAGAGCUCAACACAGCGUGGCAAAGUGGCUGUGGCUAGACUGCCUCUCUGGAUCCCUCGUCACUCAGCAGGGCAUCUCUGAGAGAAAUGCC [U26A U109C], with 0.95.
On to UACGUAGGUGGUUUUCCCCUGAUAGCGCUAAGGGGGCCUGGAAGUUUGGACUGGGCAGAGCUCUACACAGCGUGGCAAAGUGGCUGUGGCUAGACUGCCUCUCUGGAUUCCUCGUCACUCAGCAGGGCAUCUCUGAGAGAAAUGCC [U26C A64U], for which the self-cleavage came to 0.61.
With UACGUAGGUGGUUUUCCCCUGAUAGCGCUAAGGGGGCCUGGAAGUUUGGACUGGGCAGAGCUCAACACAGCGUGGCCAAGUGGCUGUGGCUAGACUGCCUCUCUGGAUUCCUCGUCACUCAGCAGGGCAUCUCUGAGAGAAAUGCC [U26C A77C], the self-cleavage is 1.61.
Then UACGUAGGUGGUUUUCCCCUGAUAGCGCUAAGGGGGCCUGGAAGUUUGGACUGGGCAGAGCUCAACACAGCGUGGCGAAGUGGCUGUGGCUAGACUGCCUCUCUGGAUUCCUCGUCACUCAGCAGGGCAUCUCUGAGAGAAAUGCC [U26C A77G], with 1.93.
As to UACGUAGGUGGUUUUCCCCUGAUAGAGCUAAGGGGGCCUGGAAGUUUGGACUGGGCAGAGCUCAACACAGCGUGGCAAAGUGGCUGUGGCAAGACUGCCUCUCUGGAUUCCUCGUCACUCAGCAGGGCAUCUCUGAGAGAAAUGCC [U26A U91A], the self-cleavage stood at 0.44.
Regarding UACGUAGGUGGUUUUCCCCUGAUAGAGCUAAGGGGGCCUGGAAGUUUGGACUGGGCAGAGCUCAACACAGCGUGGCAAAGUGGCUGUGGCUAGACUGCCUCUCUGGAUUCCUCGUCACUCAGCAGGGCACCUCUGAGAGAAAUGCC [U26A U130C], the self-cleavage was 1.24.
UACGUAGGUGGUUUUCCCCUGAUAGCGCUAAGGGGGCCUGGAAGUUUGGACUGGGCAGAGCUCAACACAGCGUGGCAAAGUGGCUGUGGCUAGACUGCCUCUCUGGAUUCCUCGUCACUCAGCUGGGCAUCUCUGAGAGAAAUGCC [U26C A124U]: the self-cleavage came out at 1.25.
Turning to UACGUAGGUGGUUUUCCCCUGAUAGAGCUAAGGGGGCCUGGAAGUUUGGACUGGGCAGAGCUCAACACAGCGUGGCAAAGUGGCUGGGGCUAGACUGCCUCUCUGGAUUCCUCGUCACUCAGCAGGGCAUCUCUGAGAGAAAUGCC [U26A U87G], the self-cleavage is 0.13.
In the case of UACGUAGGUGGUUUUCCCCUGAUAGAGCUAAGGGGGCCUGGAAGUUUGGACUGGGCAGAGCUCAACACAGCGUGGCAAAGUGGCUGCGGCUAGACUGCCUCUCUGGAUUCCUCGUCACUCAGCAGGGCAUCUCUGAGAGAAAUGCC [U26A U87C] it was 0.15; in that of UACGUAGGUGGUUUUCCCCUGAUAGAGCUAAGGGGGCCUGGAAGUUUGGACUGGGCAGAGCUCAACACAGCGUGGCAAAGUGGCUGUGGCUAGACUGCCUCCCUGGAUUCCUCGUCACUCAGCAGGGCAUCUCUGAGAGAAAUGCC [U26A U102C], 1.13.
Then UACGUAGGUGGUUUUCCCCUGAUAGCGCUAUGGGGGCCUGGAAGUUUGGACUGGGCAGAGCUCAACACAGCGUGGCAAAGUGGCUGUGGCUAGACUGCCUCUCUGGAUUCCUCGUCACUCAGCAGGGCAUCUCUGAGAGAAAUGCC [U26C A31U], with 1.05; and UACGUAGGUGGUUUUCCCCUGAUAGCGCUAAGGGGGCCUGGAAGUUUGGGCUGGGCAGAGCUCAACACAGCGUGGCAAAGUGGCUGUGGCUAGACUGCCUCUCUGGAUUCCUCGUCACUCAGCAGGGCAUCUCUGAGAGAAAUGCC [U26C A50G], with 1.14; and UACGUAGGUGGUUUUCCCCUGAUAGAGCUAAGGGGGCCUGGAAGUUUGGACUGGGCAGAGCUCAACACAGCGUGGCAAAGUGGCUGUGGCUAGACUGCCUCUCUGGAUUCCUCGUCACCCAGCAGGGCAUCUCUGAGAGAAAUGCC [U26A U119C], with 0.97.
For the variant UACGUAGGUGGUUUUCCCCUGAUAGAGCUAAGGGGGCCUGGAAGUUUGGACUGGGCAGAGCUCAACACAGCGUGGCAAAGUGGCUGUGGCUAGACUGCCUCUCUGGAUUCCUCGUCACUCAGCAGGGCAUCUCAGAGAGAAAUGCC [U26A U134A], the self-cleavage came out at 1.23.
Consider UACGUAGGUGGUUUUCCCCUGAUAGAGCUAAGGGGGCCUGGAAGUUUGGACUGGGCAGAGCUCAACACAGCGUGGCAAAGCGGCUGUGGCUAGACUGCCUCUCUGGAUUCCUCGUCACUCAGCAGGGCAUCUCUGAGAGAAAUGCC [U26A U81C], for which the self-cleavage came to 0.74.
Take UACGUAGGUGGUUUUCCCCUGAUAGAGCUAAGGGGGCCUGGAAGUUUGGACUGGGCAGAGCUCAACACAGCGUGGCAAAGAGGCUGUGGCUAGACUGCCUCUCUGGAUUCCUCGUCACUCAGCAGGGCAUCUCUGAGAGAAAUGCC [U26A U81A]: the self-cleavage stood at 1.29.
Consider UACGUAGGUGGUUUUCCCCUGAUAGCGCUAAGGGGGCCUGGAAGUUUGGACUGGGCAGAGCUCAACACAGCGUGGCAAAGUGGCUGUGGCUAGACUGCCUCUCUGGAUUCCUCGUCACUCGGCAGGGCAUCUCUGAGAGAAAUGCC [U26C A121G], for which the self-cleavage came to 1.64.
For the variant UACGUAGGUGGUUUUCCCCUGAUAGCGCUAAGGGGGCCUGGAAGUUUGGACUGGGCAGAGCUCAACACAGCGUGGCAAAGUGGCUGUGGCUAGACUGCCUCUCUGGAUUCCUCGUCACUCUGCAGGGCAUCUCUGAGAGAAAUGCC [U26C A121U], the self-cleavage was 1.43.
For UACGUAGGUGGUUUUCCCCUGAUAGCGCUAAGGGGGCCUGGAAGUUUGGACUGGGCAGAGCUCAACGCAGCGUGGCAAAGUGGCUGUGGCUAGACUGCCUCUCUGGAUUCCUCGUCACUCAGCAGGGCAUCUCUGAGAGAAAUGCC [U26C A67G], the self-cleavage was 1.16.
